Test results reported in patent US20240254239A1 (LAEKNA THERAPEUTICS SHANGHAI, published 2024).

Key:
Experiment in all cases: direct ELISA on coated recombinant ECD (30 ng/well), HRP-conjugated secondary antibody, luminescence
[1] = biological target: T1, human FAPa ECD (human, UniProt Q12884 26-760)
T1 construct: extracellular domain; also called recombinant extracellular domain of FAPα
T1 sequence (looked up): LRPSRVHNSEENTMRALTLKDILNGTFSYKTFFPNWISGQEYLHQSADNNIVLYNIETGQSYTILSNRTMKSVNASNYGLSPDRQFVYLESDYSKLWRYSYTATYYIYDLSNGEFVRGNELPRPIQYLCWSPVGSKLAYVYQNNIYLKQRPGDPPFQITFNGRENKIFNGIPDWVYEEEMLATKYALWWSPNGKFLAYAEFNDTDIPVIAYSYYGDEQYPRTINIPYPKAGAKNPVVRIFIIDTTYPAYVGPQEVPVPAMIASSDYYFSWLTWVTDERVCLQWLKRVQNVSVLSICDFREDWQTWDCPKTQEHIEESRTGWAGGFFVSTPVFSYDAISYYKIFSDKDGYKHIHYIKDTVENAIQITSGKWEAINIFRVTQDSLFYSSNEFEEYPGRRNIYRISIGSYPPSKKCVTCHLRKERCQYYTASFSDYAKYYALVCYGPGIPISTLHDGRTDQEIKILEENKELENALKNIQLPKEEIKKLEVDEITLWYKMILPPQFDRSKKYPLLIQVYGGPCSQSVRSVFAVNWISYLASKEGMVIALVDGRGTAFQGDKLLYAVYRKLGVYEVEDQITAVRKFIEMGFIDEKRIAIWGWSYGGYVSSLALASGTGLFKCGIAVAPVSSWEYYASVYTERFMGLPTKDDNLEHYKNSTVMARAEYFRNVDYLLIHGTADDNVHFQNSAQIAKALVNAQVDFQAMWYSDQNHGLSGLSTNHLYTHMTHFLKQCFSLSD
Method: (§1) Briefly, recombinant extracellular domain of PDGFRb, FAPα, ULBP1, uPAR, IGF1R, SIRPA, PD-L1, ANTXR1, CD248, or GPC3 (30 ng/well) was coated on white optiplate™-384 well HB plate. After overnight coating, standard direct ELISA assay was performed. Luminescence signal was detected after using secondary antibody with HRP conjugated. Binding activity of each antibody was determined based on dose dependent binding curve.

[2] = biological target: T2, human uPAR ECD (human, UniProt Q03405 23-305, limits assumed)
T2 construct: extracellular domain; also called recombinant extracellular domain of uPAR
Method: as §1

[3] = biological target: T3, human PD-L1 ECD (human, UniProt Q9NZQ7 19-238)
T3 construct: extracellular domain; also called recombinant extracellular domain of PD-L1
Method: as §1

[4] = biological target: T4, human ANTXR1 ECD (human, UniProt Q9H6X2 33-321)
T4 construct: extracellular domain; also called recombinant extracellular domain of ANTXR1
T4 sequence (looked up): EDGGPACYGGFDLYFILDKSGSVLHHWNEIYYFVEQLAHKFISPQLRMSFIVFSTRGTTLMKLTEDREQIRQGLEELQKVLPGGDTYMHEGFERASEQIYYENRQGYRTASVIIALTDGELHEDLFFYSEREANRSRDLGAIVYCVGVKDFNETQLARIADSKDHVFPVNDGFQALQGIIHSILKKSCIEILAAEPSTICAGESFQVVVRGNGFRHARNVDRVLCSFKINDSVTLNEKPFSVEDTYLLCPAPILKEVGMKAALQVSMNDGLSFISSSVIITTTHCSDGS
Method: as §1

[5] = biological target: T5, human CD248 ECD (human, UniProt Q9HCU0 18-687)
T5 construct: extracellular domain; also called recombinant extracellular domain of CD248
T5 sequence (looked up): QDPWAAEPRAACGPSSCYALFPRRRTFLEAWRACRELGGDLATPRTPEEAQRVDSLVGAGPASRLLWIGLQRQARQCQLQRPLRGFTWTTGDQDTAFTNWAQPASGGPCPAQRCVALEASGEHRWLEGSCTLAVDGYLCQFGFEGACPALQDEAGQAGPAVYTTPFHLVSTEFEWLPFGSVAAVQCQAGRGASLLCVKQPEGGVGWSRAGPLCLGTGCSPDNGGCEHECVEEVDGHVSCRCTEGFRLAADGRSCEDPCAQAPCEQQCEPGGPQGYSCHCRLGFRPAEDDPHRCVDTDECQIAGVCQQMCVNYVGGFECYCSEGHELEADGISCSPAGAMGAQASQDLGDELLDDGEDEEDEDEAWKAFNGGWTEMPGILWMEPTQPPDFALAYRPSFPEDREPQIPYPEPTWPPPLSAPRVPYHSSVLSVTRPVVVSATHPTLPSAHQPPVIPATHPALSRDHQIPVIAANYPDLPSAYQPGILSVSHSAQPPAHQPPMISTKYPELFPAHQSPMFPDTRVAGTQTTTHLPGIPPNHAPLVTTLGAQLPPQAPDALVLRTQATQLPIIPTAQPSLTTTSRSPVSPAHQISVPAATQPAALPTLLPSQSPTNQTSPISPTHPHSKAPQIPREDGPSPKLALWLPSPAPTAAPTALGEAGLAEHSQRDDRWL
Method: as §1

T2 sequence (Q03405 23-305 limits assumed): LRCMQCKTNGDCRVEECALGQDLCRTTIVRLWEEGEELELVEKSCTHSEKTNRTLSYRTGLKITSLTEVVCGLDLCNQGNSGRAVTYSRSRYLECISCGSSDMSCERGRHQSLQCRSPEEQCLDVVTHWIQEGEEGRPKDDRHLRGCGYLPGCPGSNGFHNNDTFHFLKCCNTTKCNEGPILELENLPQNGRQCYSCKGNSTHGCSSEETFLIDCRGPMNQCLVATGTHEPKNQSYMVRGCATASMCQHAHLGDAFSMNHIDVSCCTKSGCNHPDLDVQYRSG
T3 sequence (Q9NZQ7 19-238): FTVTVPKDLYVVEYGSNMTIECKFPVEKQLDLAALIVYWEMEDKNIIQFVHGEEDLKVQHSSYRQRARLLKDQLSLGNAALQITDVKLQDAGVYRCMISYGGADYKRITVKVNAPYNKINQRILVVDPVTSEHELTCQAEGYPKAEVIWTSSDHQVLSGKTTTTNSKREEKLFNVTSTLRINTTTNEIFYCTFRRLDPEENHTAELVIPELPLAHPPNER

B1: α-FAPa 1 S239D/1332E (antibody, mouse IgG2a, kappa, V domains shown)
VH: QVQLVQSGAEVKKPGASVKVSCKTSRYTFTEYTIHWVRQAPGQRLEWIGGINPNNGIPNYNQKFKGRVTITVDTSASTAYMELSSLRSEDTAVYYCARRRIAYGYDEGHAMDYWGQGTLVTVSS
VL: DIVMTQSPDSLAVSLGERATINCKSSQSLLYSRNQKNYLAWYQQKPGQPPKLLIFWASTRESGVPDRFSGSGFGTDFTLTISSLQAEDVAVYYCQQYFSYPLTFGQGTKVEIKR
notes: also called α-FAPα 1 S239D/I332E
binding result [1]: binds

B2: α-uPAR 1 S239D/1332E (antibody, human IgG1, kappa, V domains shown)
VH: QVQLVESGGGVVQPGRSLRLSCAASGFTFSSYGMHWVRQAPGKGLEWVAVIWYDGSNKYYADSVKGRFTISRDNSKNTLYLQMNSLRAEDTAVYYCARDQHIVVVTAILDYWGQGTLVTVSS
VL: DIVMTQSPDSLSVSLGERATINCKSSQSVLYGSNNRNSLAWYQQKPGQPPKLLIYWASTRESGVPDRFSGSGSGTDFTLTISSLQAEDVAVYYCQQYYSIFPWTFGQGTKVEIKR
notes: hIgG1 with S239D/I332E; also called α-uPAR 1 S239D/I332E; exemplary anti-uPAR antibody (α-uPAR 1)
EC50 (read off the curve) [2]: ~0.03 µg/mL

B3: α-PDL1 1 S239D/1332E (antibody, human IgG1, kappa, V domains shown)
VH: EVQLVQSGAEVKKPGATVKISCKVSGYTFTSYWMYWVRQARGQRLEWIGRIDPNSGSTKYNEKFKNRFTISRDNSKNTLYLQMNSLRAEDTAVYYCARDYRKGLYAMDYWGQGTTVTVSS
VL: AIQLTQSPSSLSASVGDRVTITCKASQDVGTAVAWYLQKPGQSPQLLIYWASTRHTGVPSRFSGSGSGTDFTFTISSLEAEDAATYYCQQYNSYPLTFGQGTKVEIKR
notes: Humanized, hIgG1 isotype, with S239D/I332E; also called α-PDL1 1 S239D/I332E; exemplary anti-PDL1 antibody (α-PDL1 1)
EC50 (read off the curve) [3]: ~0.02 µg/mL

B4: α-ANTXR1 1 mIgG2a S239D/1332E (antibody, V domains shown)
VH: QVQLVQSGAEVKKPGTSVKVSCKVPGYTFSSYAISWVRQAPGQGLEWMGGIIPIFGTTNYAQKFQGRVTITGEESTSTVYMELSSLRSEDTAVYYCARDTDYMFDYWGQGTLVTVSS
VL: SSELTQDPVVSVALGETVSITCQGDNLRDFYASWYQQKPGQAPLLVMYGKNRRPSGIPDRFSGSTSGNTLSLTITGAQAEDEADYYCSSRDNSKHVVFGGGTKVTVLG
notes: mIgG2a with S239D/I332E; also called α-ANTXR1 1 mIgG2a S239D/I332E; exemplary anti-ANTXR1 antibody (α-ANTXR1 1)
EC50 (read off the curve) [4]: ~0.01 µg/mL

B5: α-ANTXR1 2 mIgG2a S239D/1332E (antibody, V domains shown)
VH: QVQLKESPGALVKPTQTLTLTCTFSGFSLSTSGGGVSWIRQPPGKALEWLAHIYSNDDKSYSTSLKTRLTISKDTSKNQVVLTMTNMDPVDTATYYCARGGYFLDYWGQGTLVTVSS
VL: DIELTQPPSVSVAPGQTARISCSGDNIGGIYVHWYQQKPGQAPVLVIYADSKRPSGIPERFSGSNSGNTATLTISGTQAEDEADYYCQSYDITSLVFGGGTKLTVLG
notes: mIgG2a with S239D/I332E; also called α-ANTXR1 2 mIgG2a S239D/I332E; exemplary anti-ANTXR1 antibody (α-ANTXR1 2)
EC50 (read off the curve) [4]: ~0.02 µg/mL

B6: α-CD248 1 mIgG2a S239D/1332E (antibody, V domains shown)
VH: QVQLQESGPGLVAPSQSLSITCTVSGFSLTGYGVNWVRQPPEKGLEWLGMIWVDGSTDYNSALKSRLNISKDKSKSQVFLKMNSLQTDDTARYYCARGGYGAMDYWGQGTSVTVSS
VL: DIQMNQSPSSLSASLGDTITITCHASQNINVWLTWYQQKPGNIPKLLIYKASNLHTGVPSRFSGSGSGTGFTLTISSLQPEDIATYYCQQGQSYPWTFGGGTKLEIKR
notes: mIgG2a with S239D/I332E; also called α-CD248 1 mIgG2a S239D/I332E; exemplary anti-CD248 antibody (α-CD248 1)
EC50 (read off the curve) [5]: ~0.04 µg/mL
